Source: patent publication US20230340055A1 (published 2023)

How the values were obtained:
[1] = molecular target: T1, Human IL-2 Receptor alpha, Fc-Tag (Symansis, New Zealand) (human, UniProt P01589 22-240); assay: calculated from the SPR KD values of Example 15; reference protein 5a
T1 construct: extracellular domain; Bought reagent; also called IL-2Rα; IL-2Rα-Fc; not shown: Fc-Tag (captured by anti-human IgG (Fc) antibody)
T1 sequence (looked up): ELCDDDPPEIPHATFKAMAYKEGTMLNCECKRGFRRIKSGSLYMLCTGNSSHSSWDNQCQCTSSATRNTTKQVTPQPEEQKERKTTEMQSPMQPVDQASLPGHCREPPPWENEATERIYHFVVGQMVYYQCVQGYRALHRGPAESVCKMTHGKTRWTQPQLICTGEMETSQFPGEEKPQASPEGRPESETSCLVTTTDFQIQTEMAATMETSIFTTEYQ
Description: (§1) For the determination of binding kinetics to IL-2Rα the following chip preparation was used: Human IL-2 Receptor alpha, Fc-Tag (Symansis, New Zealand) was diluted in HBS-EP running buffer (GE Healthcare, 10 mM HEPES, 150 mM NaCl, 3 mM EDTA, 0.05% Surfactant P20, pH 7.4) to approx. 0.25 µg/mL and immobilized at a flow rate of 50 µL/min for 60 s to achieve 90 - 110 response units (RU).
(§2) For the determination of binding kinetics to IL-2Rβ the following chip preparation was used: Human IL-2 Receptor beta, Fc-Tag (Symansis, New Zealand) was diluted in HBS-EP running buffer (GE Healthcare, 10 mM HEPES, 150 mM NaCl, 3 mM EDTA, 0.05% Surfactant P20, pH 7.4) to around 0.25 µg/mL and immobilized at a flow rate of 50 µL/min for 60 s to achieve 300 - 330 response units (RU).
(§3) (50 µL/min flow rate, 60 s contact time, 300 s dissociation time). Double referenced data (subtracted data from the reference flow cell and the buffer only samples) was analysed via a kinetic fit (1:1 binding model) to determine KD, kₐ and kd. Regeneration after each cycle was performed with 3 M MgCl₂.

[2] = molecular target: T2, IL-2Rβγ (dimeric intermediate affinity IL-2 receptor), human, on cells (human, UniProt P14784 27-551; P31785 23-369); assay: cell-based or functional assay
T2 sequence (looked up) 1: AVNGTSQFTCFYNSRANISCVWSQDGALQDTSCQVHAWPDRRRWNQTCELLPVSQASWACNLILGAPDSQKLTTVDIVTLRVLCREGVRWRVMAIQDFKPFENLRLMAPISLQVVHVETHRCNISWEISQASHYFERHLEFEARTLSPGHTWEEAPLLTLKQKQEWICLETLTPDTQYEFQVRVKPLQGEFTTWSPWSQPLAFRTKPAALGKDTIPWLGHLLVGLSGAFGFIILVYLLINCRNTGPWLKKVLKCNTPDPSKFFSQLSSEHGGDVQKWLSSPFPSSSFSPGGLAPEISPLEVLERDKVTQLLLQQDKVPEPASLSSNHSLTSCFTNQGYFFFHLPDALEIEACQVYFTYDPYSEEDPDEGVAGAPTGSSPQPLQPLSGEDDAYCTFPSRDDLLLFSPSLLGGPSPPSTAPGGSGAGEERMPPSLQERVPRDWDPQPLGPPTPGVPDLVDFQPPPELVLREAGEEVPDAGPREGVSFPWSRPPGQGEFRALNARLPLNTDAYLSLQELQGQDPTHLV
T2 sequence (looked up) 2: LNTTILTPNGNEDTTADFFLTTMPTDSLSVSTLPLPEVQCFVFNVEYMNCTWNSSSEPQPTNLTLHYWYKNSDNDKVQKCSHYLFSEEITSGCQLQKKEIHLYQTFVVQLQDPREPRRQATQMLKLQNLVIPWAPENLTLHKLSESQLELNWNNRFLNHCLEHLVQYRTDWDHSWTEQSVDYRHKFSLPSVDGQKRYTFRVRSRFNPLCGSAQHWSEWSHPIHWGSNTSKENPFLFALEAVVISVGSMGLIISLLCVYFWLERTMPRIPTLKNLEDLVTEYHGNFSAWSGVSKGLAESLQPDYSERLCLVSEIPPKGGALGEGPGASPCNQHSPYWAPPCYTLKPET

[3] = molecular target: T3, IL-2Rαβγ (trimeric high-affinity IL-2 receptor), human, on cells (human, UniProt P01589 22-272; P14784 27-551; P31785 23-369); assay: cell-based or functional assay
T3 sequence (looked up) 1: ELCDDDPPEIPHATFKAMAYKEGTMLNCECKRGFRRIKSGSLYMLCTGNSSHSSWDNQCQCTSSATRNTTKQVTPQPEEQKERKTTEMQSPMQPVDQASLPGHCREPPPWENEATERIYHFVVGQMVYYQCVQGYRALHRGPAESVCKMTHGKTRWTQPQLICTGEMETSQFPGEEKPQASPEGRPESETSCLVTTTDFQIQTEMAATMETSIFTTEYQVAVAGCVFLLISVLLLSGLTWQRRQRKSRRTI
T3 sequence (looked up) 2: T2 sequence (looked up) 1
T3 sequence (looked up) 3: T2 sequence (looked up) 2

[4] = molecular target: T3, IL-2Rαβγ (trimeric high-affinity IL-2 …); assay: cell-based or functional assay; remark: listed apart in the source
[5] = molecular target: T1, Human IL-2 Receptor alpha, Fc-Tag …; assay: SPR; KD to IL-2Rα divided by KD to IL-2Rβ of the same compound
Description: as §1, §2, §3

B1: protein 6 (ligand)
chain: APTSSSTKKTQLQLEHLLLDLQMILNGINNYKNPKLTFGNSTKFYMPKKATELKHLQCLEEELKPLEEVLNLAQSKNFHLRPRDLISNINVIVLELKGSETTFMCEYADETATIVEFLNRWITFSQSIISTLT
modifications: glycosylated (same sequence with the N-glycosylation motif FGNST as protein 1f); glycan sites not analysed separately for protein 6
ratio of Ratio protein 6 to Ratio protein 5a (KD to IL-2Rα / KD to IL-2Rβ) [1]: > 100
EC50, pSTAT5 MFI, CD8 (human PBMCs) [2]: 78.8 ng/mL
EC50, pSTAT5 MFI, NK (human PBMCs) [2]: 11.7 ng/mL
EC50, pSTAT5 MFI, Treg (human PBMCs) [3]: 38 ng/mL
fold lower potency than 1d, pSTAT5, Tregs (human PBMCs) [4]: ~1900 fold
KD-Ratio (α/β) [5]: > 2.7
